Test results taken from publication PMC314469, “Protein Interaction Networks by Proteome Peptide Scanning” (PLoS Biology, 2004).

T1: Myo5 SH3 (MYO5_YEAST), Q04439
T1 chain: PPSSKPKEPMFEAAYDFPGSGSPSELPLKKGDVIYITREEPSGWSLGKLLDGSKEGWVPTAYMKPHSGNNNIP

B1: YNR014W 177-190 (peptide)
chain: SPNDHSDPSSPSNR
B2: YML083C 47-60 (peptide)
chain: SPRSLPTPILPSMS
B3: YIL101C 572-585 (peptide)
chain: SPRHYNVPSSPIAP
B4: YER003C 229-242 (peptide)
chain: SPSDFNKPDLPELI
B5: YKL146W 143-156 (peptide)
chain: SPSQYQYPSQPALS
B6: YNL027W 321-334 (peptide)
chain: SPSTHAAPVTPIIS
B7: YPL089C 234-247 (peptide)
chain: SPSTMDFPKLPSFQ
B8: YJL050W 730-743 (peptide)
chain: SPVNLLKPFNPTLP
B9: YLR163C 237-250 (peptide)
chain: SPVPLGSPRGPLPV
B10: YJL195C 85-98 (peptide)
chain: SWAVLPVPGGPVMY
B11: YMR158W-A 93-106 (peptide)
chain: SWLTMLPPMAPLLS
B12: YMR287C 119-132 (peptide)
chain: SWRSLTKPKIPLYK
B13: YPL004C 14-27 (peptide)
chain: TAAELQAPPPPPSS
B14: YHR182W 732-745 (peptide)
chain: TAPIHSTPKPPPND
B15: YGR086C 14-27 (peptide)
chain: TASQLQNPPPPPST
B16: YPR090W 8-21 (peptide)
chain: TAWDMVPPYSPLSE
B17: YPR190C 407-420 (peptide)
chain: TEDGFVIPALPAAV
B18: YOL070C 304-317 (peptide)
chain: TEEILPTPVQPGGH
B19: YDL195W 822-835 (peptide)
chain: TEGKYAPPSQPSMA
B20: YLR030W 45-58 (peptide)
chain: TFRDMDLPQHPVIH
B21: YPL100W 474-487 (peptide)
chain: TFSIYSIPSKPGES
B22: YOL111C 18-31 (peptide)
chain: TLATLTEPKLPKSY
B23: YLR422W 982-995 (peptide)
chain: TLEWLLTPYTPGDD
B24: YLR198C 4-17 (peptide)
chain: TLFRFIVPFNPYFS
B25: YOR184W 245-258 (peptide)
chain: TLHELGVPITPIAF
B26: YLR178C 145-158 (peptide)
chain: TLIEYMGPAPPKGS
B27: YOR034C 339-352 (peptide)
chain: TLKKFVLPSLPRKN
B28: YDR096W 584-597 (peptide)
chain: TLPPLSSPMNPNGH
B29: YGR092W 484-497 (peptide)
chain: TLRSMIPPFTPQLD
B30: YHR007C 237-250 (peptide)
chain: TPINFVFPNLPLEH
B31: YPL154C 366-379 (peptide)
chain: TPMDFPEPVGPLAI
B32: YNL271C 1302-1314 (peptide)
chain: TPPPPPLPSVLSS
B33: YOL148C 21-34 (peptide)
chain: TPSNMGSPGSPVNV
B34: YPR065W 331-344 (peptide)
chain: TPTHHHIPHIPNQN
B35: YHR217C 42-55 (peptide)
chain: TPTPHPHPHTPHPH
B36: YBR136W 679-692 (peptide)
chain: TPYQLLSPILPVLL
B37: YLR039C 34-47 (peptide)
chain: TWKMHLWPVSPPQL
B38: YOR378W 217-230 (peptide)
chain: VAGYFVIPHTPMPS
B39: YMR290C 473-486 (peptide)
chain: VAKSYGFPVPPKVN
B40: YPL128C 101-114 (peptide)
chain: VAPGLWFPNSPPPL
B41: YLR258W 646-659 (peptide)
chain: VARPLSVPGSPRDL
B42: YBR223C 517-530 (peptide)
chain: VAVPFTLPVIPYDL
B43: YHR163W 199-212 (peptide)
chain: VAWSHDSPKPPSDR
B44: YMR246W 254-267 (peptide)
chain: VELHFPKPEDPASI
B45: YNL088W 813-826 (peptide)
chain: VEPEWYLPILPMIL
B46: YML117W 995-1008 (peptide)
chain: VEVIMHSPSDPEYA
B47: YMR272C 367-380 (peptide)
chain: VFGTYLGPDAPLSK
B48: YJL005W 768-781 (peptide)
chain: VFKFLFHPVTPSHF
B49: YOR249C 40-53 (peptide)
chain: VFLRLISPTRPSLE
B50: YGL195W 2560-2573 (peptide)
chain: VFSSLRDPVIPIKL
B51: YIL001W 264-277 (peptide)
chain: VFSLMNSPAYPDVQ
B52: YLR410W 284-297 (peptide)
chain: VLEAYNVPTPPRLE
B53: YAL018C 292-305 (peptide)
chain: VLFNLDHPMVPENL
B54: YGL197W 857-870 (peptide)
chain: VLGVLNVPLPPQTR
B55: YGR099W 37-50 (peptide)
chain: VLIKFVIPVYPSLP
B56: YOR029W 22-35 (peptide)
chain: VLKGFYSPSAPSYD
B57: YML131W 8-21 (peptide)
chain: VLKNLPTPGEPFNF
B58: YBR026C 53-66 (peptide)
chain: VLKTLAFPINPSDI

Target: T1, Myo5 SH3 (MYO5_YEAST), Q04439
Test: SPOT array

Binder | normalised SPOT signal, Boehringer light units (BLU); mean over the file's lines of this peptide
B1 | 76.1
B2 | 193
B3 | 233
B4 | 317
B5 | 65.2
B6 | 53.3
B7 | 467
B8 | 123
B9 | 135
B10 | 69.2
B11 | 505
B12 | 357
B13 | 315
B14 | 77.7
B15 | 168
B16 | 127
B17 | 290
B18 | 121
B19 | 223
B20 | 188

Binder | normalised SPOT signal, Boehringer light units (BLU); mean over the file's lines of this peptide
B21 | 227
B22 | 18
B23 | 164
B24 | 882
B25 | 119
B26 | 133
B27 | 504
B28 | 252
B29 | 413
B30 | 81.8
B31 | 175
B32 | 25800
B33 | 156
B34 | 148
B35 | 158
B36 | 287
B37 | 224
B38 | 180
B39 | 259
B40 | 4830

Binder | normalised SPOT signal, Boehringer light units (BLU); mean over the file's lines of this peptide
B41 | 186
B42 | 240
B43 | 30.6
B44 | 14.9
B45 | 236
B46 | 150
B47 | 130
B48 | 565
B49 | 1640
B50 | 132
B51 | 153
B52 | 57.4
B53 | 220
B54 | 233
B55 | 562
B56 | 290
B57 | 148
B58 | 156
